Measured values from paper PMC8519427.

Target: human α-SNAP with an Avitag and a C-terminal 6xHis tag (human) (UniProt P54920)
Assay: BLI; Octet RED96, 25°C; 0.25 μM biotinylated α-SNAP loaded on streptavidin biosensor tips; analyte: purified Orai1 or Stim1 fragments at varying concentrations; PBS with 2 mg/ml BSA and 0.02% Tween-20; association 5 min, dissociation 10 min; double referencing; global fit to the 1:1 or 2:1 binding model

Chain of human α-SNAP with an Avitag and a C-terminal 6xHis tag (human) (P54920 whole entry, the tested form may be a part): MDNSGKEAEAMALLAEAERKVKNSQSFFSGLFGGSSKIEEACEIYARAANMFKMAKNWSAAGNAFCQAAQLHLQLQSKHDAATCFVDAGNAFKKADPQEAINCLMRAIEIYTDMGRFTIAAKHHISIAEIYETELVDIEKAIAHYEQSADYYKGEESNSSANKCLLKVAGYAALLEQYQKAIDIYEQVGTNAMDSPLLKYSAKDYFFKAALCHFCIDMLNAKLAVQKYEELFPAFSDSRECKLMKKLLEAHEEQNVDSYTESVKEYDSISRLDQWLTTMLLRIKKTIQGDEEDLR

Substance	KD1 (2:1 binding model, site 1) [nM]	KD2 (2:1 binding model, site 2) [µM]	Kd [nM]	koff [s⁻¹]	koff1 (2:1 binding model, site 1) [s⁻¹]	koff2 (2:1 binding model, site 2) [s⁻¹]	kon [M⁻¹ s⁻¹]	kon1 (2:1 binding model, site 1) [M⁻¹ s⁻¹]	kon2 (2:1 binding model, site 2) [M⁻¹ s⁻¹]
purified untagged Orai1 245–292 (from UniProt Q96D31 245-292) (domain or fragment)	314	202	548	0.000595	0.000213	0.0306	1080	678	152
purified untagged Orai1 1–103 (from UniProt Q96D31 1-103) (domain or fragment)			763	0.000117			154		
commercially synthesized Orai1 245–292 peptide (from UniProt Q96D31 245-292)	198	0.715	369	0.000506	5.62e-05	0.0279	1370	284	39000
